Ends that are not written are not given here.
What was measured:
MC3T3-E1 cells = assay: cAMP screen of EALK-PTHrP(1-31)/(1-34) variants (% parent); assay type: cell-based; conditions: parent E18,A22,L25,K26-PTHrP(1-31)OH
Text: FIGS. 32A and 32B are graphs showing the effects of amino acid substitutions in the 29-31 region of EALK-PTHrP(1-31) (SEQ ID NO:94) (FIG. 32A) and the 29-33 region of EALK-PTHrP(1-34) (SEQ ID NO:112) (FIG. 32B) on induction of cAMP activity in MC3T3-E1 cells. Substitutions at position 29 for EALK-PTHrP(1-31) were G^29 to S^29 (SEQ ID NO:95-96), L^29 (SEQ ID NO:176), and N^29 to K^29 (SEQ ID NO:97-101). Substitutions at position 30 for EALK-PTHrP(1-31) were G^30 to D^30 (SEQ ID NO:102-106), W^30 (SEQ ID NO:177), and K^30 (SEQ ID NO:107). […] Substitutions for EALK-PTHrP(1-34) A^30 to A^33 (SEQ ID NO:113-116) and EALK-PTHrP(1-28)/PTH(29-34) (SEQ ID NO:117).
To optimize the activity of the EALK-PTHrP peptides, we generated EALK-PTHrP([…]) and PTHrP(1-34) variants with substitutions in the 29-33 region. In the 1-30 scaffold, Gly, Ser, Leu, Asn, Gln, Trp, Glu, and Lys were substituted at position 29; Gly, Ser, Leu, Asn, Asp, Trp, and Lys were substituted at position 30; and Ser, Leu, Asn, Val, Trp, Glu, and Lys were substituted at position 31. […] A predicted advantage of these longer-length peptides, relative to the PTHrP(1-30) scaffold, is that they will have longer a longer half-life in circulation due to slower clearance. The C-terminal substitutions were thus designed to provide the added chain length, but to avoid increasing R^0 binding affinity, which occurs when the native PTHrP(29-34) region (SEQ ID NO:186) is installed. These peptides were tested for cAMP activity in MC3T3-E1 cells.

[1] = test system: LLCPK1-B64 cells or SaOS-2 cells; assay: cAMP screen of substituted PTHrP(1-28) analogs (% parent); assay type: cell-based; conditions: parent PTHrP(1-28)NH
Description: Alanine substitution at position 18, 22, 25 and 26 increased activity in at least one cell type. These positions were further substituted to various types of amino acids, and cAMP activity was analyzed in LLCPK1-B64 cells (FIG. 27C) or SaOS-2 cells (FIG. 27D). Cells were treated with analogs at 3×10^−9M in the presence of IBMX for 30 minutes at room temperature. Responses for each analog were normalized to the response for the parent (native) PTHrP(1-28) peptide. Alanine substitutions were A^15 to A^17 (SEQ ID NO:152-154), A^18 (SEQ ID NO:34), A^19 to A^21 (SEQ ID NO:155-157), A^22 (SEQ ID NO:39), A^23 to A^25 (SEQ ID NO:158-160), A^26 (SEQ ID NO:46), and A^27 to A^28 (SEQ ID NO:161-162). Substitutions at position 18 were A^18 (SEQ ID NO: 34), G^18 (SEQ ID NO:163), S^18 (SEQ ID NO:35), M^18 (SEQ ID NO:36), L^18 (SEQ ID NO:164), F^18 (SEQ ID NO:37), N^18 (SEQ ID NO:165), E^18 (SEQ ID NO:38), and K^18 (SEQ ID NO:166). Substitutions at position 22 were A^22 (SEQ ID NO:39), G^22 (SEQ ID NO:167), and S^22 to K^22 (SEQ ID NO:40-45). Substitutions at position 26 were A^26 (SEQ ID NO:46), G^26 (SEQ ID NO:168), S^26 (SEQ ID NO:47), L^26 (SEQ ID NO:169), N^26 (SEQ ID NO:48), W^26 to E^26 (SEQ ID NO:170-171), and K^26 to R^26 (SEQ ID NO:49-50). Substitutions at position 25 were G^25 to S^25 (SEQ ID NO:172-173), L^25 (SEQ ID NO:51), N^25 (SEQ ID NO:174), W^25 (SEQ ID NO:52), E^25 (SEQ ID NO:175), and K^25 to R^25 (SEQ ID NO:53-54). […]

[2] = molecular target: T1, human PTHR, G protein-uncoupled conformation (R^0) (Homo sapiens, UniProt Q03431); assay: Competition binding to R0 conformation of hPTHR (COS-7 membranes, GTPγS, 125I-PTH(1-34) tracer); conditions: parent PTHrP(1-28)NH
T1 construct: expressed in transfected cells; host or cells: COS-7, transient (Fugene-6)
T1 sequence (Q03431 27-593): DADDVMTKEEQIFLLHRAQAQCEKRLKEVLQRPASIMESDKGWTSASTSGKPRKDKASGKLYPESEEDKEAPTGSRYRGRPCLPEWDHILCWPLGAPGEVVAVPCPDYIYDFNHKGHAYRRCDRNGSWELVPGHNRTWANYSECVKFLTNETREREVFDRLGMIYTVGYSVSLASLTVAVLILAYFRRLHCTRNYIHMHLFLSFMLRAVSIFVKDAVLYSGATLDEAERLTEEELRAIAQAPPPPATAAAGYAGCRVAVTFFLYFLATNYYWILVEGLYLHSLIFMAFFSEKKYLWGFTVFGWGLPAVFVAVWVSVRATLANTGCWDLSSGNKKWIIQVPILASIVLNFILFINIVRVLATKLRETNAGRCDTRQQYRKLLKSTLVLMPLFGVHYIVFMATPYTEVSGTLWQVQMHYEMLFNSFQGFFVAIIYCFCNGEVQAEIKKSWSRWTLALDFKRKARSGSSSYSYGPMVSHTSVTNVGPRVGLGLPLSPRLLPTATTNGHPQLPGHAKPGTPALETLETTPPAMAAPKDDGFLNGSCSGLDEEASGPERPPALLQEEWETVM
Description: Membranes were prepared from COS-7 cells transfected with the hPTHR alone. GTPγS ([…]) was added to the binding reactions so as to functionally uncouple receptor-heterotrimeric G protein complexes, thus enriching for the R^0 (and R) conformations, relative to RG.
Reactions contained a total membrane protein concentration of 20 to 100 μg/mL, and a total radioactivity concentration of approximately 150,000 cpm/ml. Unlabeled peptide ligands and/or GTPγS (Sigma-Aldrich Inc. St. Louis, Mo.) were added to the reactions as indicated.
Membranes, tracer radioligand, and various concentrations of unlabeled ligands and/or GTPγS were incubated in the wells for 90 minutes, following which, the reaction plates were processed by rapid vacuum filtration to separate bound from free radioligand, as described above. […] For both radioligands, the non-specific binding was determined in reactions containing a saturating concentration of the unlabeled analog of the radioligand. The specifically bound radioactivity was calculated as a percent of the radioactivity specifically bound in the absence of a competing ligand or GTPγS.
To assess the capacities of various unlabeled peptide ligands to bind to the G protein-uncoupled and G protein-coupled PTHR conformations (R^0 and RG, respectively), membranes were prepared from transiently transfected COS-7 cells and the following assay conditions.

[3] = molecular target: T2, human PTHR, G protein-coupled conformation (RG) (Homo sapiens, UniProt Q03431); assay: Competition binding to RG conformation of hPTHR (COS-7 membranes, GαsND, 125I-[Aib1,3,M]PTH(1-15) tracer); conditions: parent PTHrP(1-28)NH
T2 construct: expressed in transfected cells; host or cells: COS-7, transient (Fugene-6); membranes
T2 sequence (Q03431 27-593): T1 sequence (Q03431 27-593)

Substance | screen cAMP (% parent) (MC3T3-E1 cells) | screen cAMP (% parent) [1] [% parent] | screen human PIR R0 (% parent) [2] [% parent] | screen human PIR RG (% parent) [3] [% parent]
E18,A22,L25,K26,L30-PTHrP(1-31) (AVSEHQLLHDKGKSIQDERRRAFLLKLIALI-OH) [E18, A22, L25, K26, L30-PTHrP(1-31)OH] | 185 | – | – | –
E18,A22,L25,K26,N29-PTHrP(1-31) (AVSEHQLLHDKGKSIQDERRRAFLLKLINEI-OH) [E18, A22, L25, K26, M29-PTHrP(1-31)OH] | 210 | – | – | –
E18,A22,L25,K26,N30-PTHrP(1-31) (AVSEHQLLHDKGKSIQDERRRAFLLKLIANI-OH) [E18, A22, L25, K26, N30-PTHrP(1-31)OH] | 189 | – | – | –
E18,A22,L25,K26,S31-PTHrP(1-31) (AVSEHQLLHDKGKSIQDERRRAFLLKLIAES-OH) [E18, A22, L25, K26, S31-PTHrP(1-31)OH] | 99 | – | – | –
E18,A22,L25,K26,V31-PTHrP(1-31) (AVSEHQLLHDKGKSIQDERRRAFLLKLIAEV-OH) [E18, A22, L25, K26, V31-PTHrP(1-31)OH] | 181 | – | – | –
E18,L22,K26-PTHrP(1-28) (AVSEHQLLHDKGKSIQDERRRLFLHKLI-NH2) [E18, L22, K26-PTHrP(1-28)NH] | – | 264 | 64.4 | 152
E18,N22,A26-PTHrP(1-28) (AVSEHQLLHDKGKSIQDERRRNFLHALI-NH2) [E18, N22, A26-PTHrP(1-28)NH] | – | 171 | 53.7 | 140
E18,N22,K26-PTHrP(1-28) (AVSEHQLLHDKGKSIQDERRRNFLHKLI-NH2) [E18, N22, K26-PTHrP(1-28)NH] | – | 236 | 84.4 | 147
E18,S22,A26-PTHrP(1-28) (AVSEHQLLHDKGKSIQDERRRSFLHALI-NH2) [E18, S22, A26-PTHrP(1-28)NH] | – | 119 | 31.9 | 132
E18,W22,A26-PTHrP(1-28) (AVSEHQLLHDKGKSIQDERRRWFLHALI-NH2) [E18, W22, A26-PTHrP(1-28)NH] | – | 75 | 18.8 | 116
E18,W22,K26-PTHrP(1-28) (AVSEHQLLHDKGKSIQDERRRWFLHKLI-NH2) [E18, W22, K26-PTHrP(1-28)NH] | – | 165 | 46.6 | 149
